These results are taken from PMC2746994 (Biochemistry, 2009).

The target of one test is Survivin, non-tagged (human, UniProt O15392 1-142). The experiment in a line: SEC.
Test [1] concerns the target Survivin-GB1Borealin f.l. complex (human, UniProt O15392;Q53HL2). The experiment in a line: ITC.

Survivin-GB1Borealin f.l. complex, sequence (O15392 whole entry, chain 1 of 2): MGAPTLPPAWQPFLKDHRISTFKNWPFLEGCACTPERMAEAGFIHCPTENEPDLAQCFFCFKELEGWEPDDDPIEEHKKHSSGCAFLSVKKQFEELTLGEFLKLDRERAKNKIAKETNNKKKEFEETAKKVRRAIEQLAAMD
Survivin-GB1Borealin f.l. complex, sequence (Q53HL2 whole entry, chain 2 of 2): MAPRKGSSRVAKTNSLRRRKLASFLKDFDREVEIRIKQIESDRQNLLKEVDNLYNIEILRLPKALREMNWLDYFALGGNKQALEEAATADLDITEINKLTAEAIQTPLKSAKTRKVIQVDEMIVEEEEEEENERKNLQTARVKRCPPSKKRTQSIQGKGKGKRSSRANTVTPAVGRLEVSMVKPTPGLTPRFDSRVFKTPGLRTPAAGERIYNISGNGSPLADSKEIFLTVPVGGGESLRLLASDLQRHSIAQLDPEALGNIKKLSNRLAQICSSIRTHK
Survivin, non-tagged, sequence (O15392 whole entry): as the sequence (O15392 whole entry, chain 1 of 2) above

B1: GB1Borealin 13-92 (domain or fragment)
chain: TNSLRRRKLASFLKDFDREVEIRIKQIESDRQNLLKEVDNLYNIEILRLPKALREMNWLDYFALGGNKQALEEAATADLD
For the molecule B1, in the test with Survivin, non-tagged, the binding result is reported as “binds”.

B2: INCENP 1-69, His6-tagged (domain or fragment)
chain: MGTTAPGPIHLLELCDQKLMEFLCNMDNKDLVWLEEIQEEAERMFTREFSKEPELMPKTPSQKNRRKKR
Take B2: in test [1], the Kd amounted to 27 nM and the “stoichiometry N” value is about 0.75.
